Starred links: 1 amine or outer side, 2 acyl side, 3 side chain; linkers in the order of their positions; H or OH if unused. Positions of bridges follow the written chain, without caps; N, C: chain ends. Non-standard residues stand in square brackets, D forms with d. *: point of attachment. Tyr(Me) = 4-OMe-Phe, COc1ccc(C[C@H](N[*:1])C(=O)[*:2])cc1; dPhe(4-CONH2) = NC(=O)c1ccc(C[C@@H](N)C(=O)O)cc1; dTyr(Me) = COc1ccc(C[C@@H](N[*:1])C(=O)[*:2])cc1; Phe(4-Cl) = N[C@@H](Cc1ccc(Cl)cc1)C(=O)O; dPhe(4-Cl) = N[C@H](Cc1ccc(Cl)cc1)C(=O)O; Bz = O=C(c1ccccc1)*; βAla = NCCC(=O)O
Assays:
[1] = biological target: somatostatin receptor type 2 (SSTR2) (UniProt P30874 1-369); assay: cell-based or functional assay
[2] = biological target: somatostatin receptor SSTR3 (UniProt P32745 1-418); assay: cell-based or functional assay
somatostatin receptor SSTR3, sequence (P32745 whole entry): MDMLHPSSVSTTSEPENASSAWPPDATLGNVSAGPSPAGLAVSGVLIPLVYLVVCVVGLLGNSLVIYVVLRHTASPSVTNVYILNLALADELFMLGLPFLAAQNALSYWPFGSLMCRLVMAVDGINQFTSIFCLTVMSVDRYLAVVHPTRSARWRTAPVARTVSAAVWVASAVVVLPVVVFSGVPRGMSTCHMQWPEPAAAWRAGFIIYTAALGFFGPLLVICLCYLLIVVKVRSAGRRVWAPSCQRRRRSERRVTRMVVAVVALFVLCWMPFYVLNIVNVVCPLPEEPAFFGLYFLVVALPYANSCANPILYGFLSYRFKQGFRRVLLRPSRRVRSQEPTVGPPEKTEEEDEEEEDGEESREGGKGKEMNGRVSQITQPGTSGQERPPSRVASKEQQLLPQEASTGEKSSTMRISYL

somatostatin receptor type 2 (SSTR2), sequence (P30874 whole entry): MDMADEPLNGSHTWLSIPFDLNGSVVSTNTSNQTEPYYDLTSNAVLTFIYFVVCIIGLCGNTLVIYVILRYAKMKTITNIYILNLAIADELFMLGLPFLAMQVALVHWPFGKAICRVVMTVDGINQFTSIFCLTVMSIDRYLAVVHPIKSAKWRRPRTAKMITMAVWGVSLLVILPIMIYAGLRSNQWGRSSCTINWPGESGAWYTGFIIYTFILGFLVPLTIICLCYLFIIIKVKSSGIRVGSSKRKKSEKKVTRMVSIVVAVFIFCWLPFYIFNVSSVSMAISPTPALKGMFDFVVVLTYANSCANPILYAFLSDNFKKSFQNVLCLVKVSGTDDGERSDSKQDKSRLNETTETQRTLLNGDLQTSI

Binder	IC50 (PathHunter β-Arrestin, antagonist mode) [1]	IC50 (PathHunter β-Arrestin, antagonist mode) [2]
H-[Phe(4-Cl)][dC]Y[dAph(Cit)]KTC[dY]-NH2 (disulfide 2-7) [Compound 22: H-Cpa-cyclo[DCys-Tyr-D-4-(Cit)Aph-Lys-Thr-Cys]-DTyr-NH2]	417 nM	> 1000 nM
H-[Phe(4-Cl)][dC][Phe(4-Cl)][dPhe(4-CONH2)]K(Me)TC[dY]-NH2 (disulfide 2-7; SMILES CNCCCC[C@@H]1NC(=O)[C@@H](Cc2ccc(C(N)=O)cc2)NC(=O)[C@H](Cc2ccc(Cl)cc2)NC(=O)[C@H](NC(=O)[C@@H](N)Cc2ccc(Cl)cc2)CSSC[C@@H](C(=O)N[C@H](Cc2ccc(O)cc2)C(N)=O)NC(=O)[C@H]([C@@H](C)O)NC1=O) [Compound 48: H-Cpa-cyclo[D-Cys-Cpa-D-Phe(4-carbamoyl)-Lys(Nε-Me)-Thr-Cys]-D-Tyr-NH2]	1.31 nM	
H-[Phe(4-Cl)][dC]Y[dAph(Asp)]KTC[dY]-NH2 (disulfide 2-7) [Compound 18: H-Cpa-cyclo[DCys-Tyr-D-4-(Asp)Aph-Lys-Thr-Cys]-DTyr-NH2]	> 1000 nM	> 1000 nM
H-[Phe(4-Cl)][dC]Y[dPhe(4-CONH2)]K(Me)TC[dPhe(4-Cl)]-NH2 (disulfide 2-7; SMILES CNCCCC[C@@H]1NC(=O)[C@@H](Cc2ccc(C(N)=O)cc2)NC(=O)[C@H](Cc2ccc(O)cc2)NC(=O)[C@H](NC(=O)[C@@H](N)Cc2ccc(Cl)cc2)CSSC[C@@H](C(=O)N[C@H](Cc2ccc(Cl)cc2)C(N)=O)NC(=O)[C@H]([C@@H](C)O)NC1=O) [Compound 46: H-Cpa-cyclo[D-Cys-Tyr-D-Phe(4-carbamoyl)-Lys(Nε-Me)-Thr-Cys]-D-Cpa-NH2]	0.398 nM	
H-[Phe(4-Cl)][dC][Phe(4-Cl)][dPhe(4-CONH2)]K(Me)TC[dPhe(4-Cl)]-NH2 (disulfide 2-7; SMILES CNCCCC[C@@H]1NC(=O)[C@@H](Cc2ccc(C(N)=O)cc2)NC(=O)[C@H](Cc2ccc(Cl)cc2)NC(=O)[C@H](NC(=O)[C@@H](N)Cc2ccc(Cl)cc2)CSSC[C@@H](C(=O)N[C@H](Cc2ccc(Cl)cc2)C(N)=O)NC(=O)[C@H]([C@@H](C)O)NC1=O) [Compound 47: H-Cpa-cyclo[D-Cys-Cpa-D-Phe(4-carbamoyl)-Lys(Nε-Me)-Thr-Cys]-D-Cpa-NH2]	1.51 nM	
Bz-G[Phe(4-Cl)][dC]Y[dPhe(4-CONH2)]K(Me)TC[dY]-NH2 (disulfide 3-8; SMILES CNCCCC[C@@H]1NC(=O)[C@@H](Cc2ccc(C(N)=O)cc2)NC(=O)[C@H](Cc2ccc(O)cc2)NC(=O)[C@H](NC(=O)[C@H](Cc2ccc(Cl)cc2)NC(=O)CNC(=O)c2ccccc2)CSSC[C@@H](C(=O)N[C@H](Cc2ccc(O)cc2)C(N)=O)NC(=O)[C@H]([C@@H](C)O)NC1=O) [Compound 50: Ph(CO)NHCH2(CO)-Cpa-cyclo[D-Cys-Tyr-D-Phe(4-carbamoyl)-Lys(Nε-Me)-Thr-Cys]-D-Tyr-NH2]	1.11 nM	
succinamoyl-[Phe(4-Cl)][dC]Y[dPhe(4-CONH2)]K(Me)TC[dY]-NH2 (disulfide 2-7) [Compound 54: H2N(CO)(CH2)2(CO)-Cpa-cyclo[D-Cys-Tyr-D-Phe(4-carbamoyl)-Lys(Nε-Me)-Thr-Cys]-D-Tyr-NH2]	2.33 nM	
H-[Phe(4-Cl)][dC][Tyr(Me)][dPhe(4-CONH2)]KTC[dTyr(Me)]-NH2 (disulfide 2-7; SMILES COc1ccc(C[C@@H]2NC(=O)[C@H](NC(=O)[C@@H](N)Cc3ccc(Cl)cc3)CSSC[C@@H](C(=O)N[C@H](Cc3ccc(OC)cc3)C(N)=O)NC(=O)[C@H]([C@@H](C)O)NC(=O)[C@H](CCCCN)NC(=O)[C@@H](Cc3ccc(C(N)=O)cc3)NC2=O)cc1) [Compound 45: H-Cpa-cyclo[DCys-4-OMe-Phe-D-(4-carbamoyl)Phe-Lys-Thr-Cys]-4-OMe-D-Phe-NH2]	14.6 nM	
H-[Phe(4-Cl)][dC]Y[dAph(Asn)]KTC[dY]-NH2 (disulfide 2-7) [Compound 19: H-Cpa-cyclo[DCys-Tyr-D-4-(Asn)Aph-Lys-Thr-Cys]-DTyr-NH2]	> 1000 nM	> 1000 nM
H-[Phe(4-Cl)][dC]Y[dAph(Glu)]KTC[dY]-NH2 (disulfide 2-7) [Compound 20: H-Cpa-cyclo[DCys-Tyr-D-4-(Glu)Aph-Lys-Thr-Cys]-DTyr-NH2]	924 nM	> 1000 nM
{3,3‑dimethylbutanoyl}-[Phe(4-Cl)][dC]Y[dPhe(4-CONH2)]K(Me)TC[dY]-NH2 (disulfide 2-7) [Compound 52: t-BuCH2(CO)-Cpa-cyclo[D-Cys-Tyr-D-Phe(4-carbamoyl)-Lys(Nε-Me)-Thr-Cys]-D-Tyr-NH2]	1.73 nM	
{2‑(phenylsulfonyl)acetyl}-[Phe(4-Cl)][dC]Y[dPhe(4-CONH2)]K(Me)TC[dY]-NH2 (disulfide 2-7) [Compound 51: PhSO2CH2(CO)-Cpa-cyclo[D-Cys-Tyr-D-Phe(4-carbamoyl)-Lys(Nε-Me)-Thr-Cys]-D-Tyr-NH2]	1.45 nM	
H-[Phe(4-Cl)][dC]Y[dAph(2-(4-morpholinyl)ethyl)]KTC[dY]-NH2 (disulfide 2-7) [Compound 11: H-Cpa-cyclo[DCys-Tyr-D-4-(2-(4-morpholinyl)ethyl)Aph-Lys-Thr-Cys]-DTyr-NH2]	243 nM	> 1000 nM
H-[Phe(4-Cl)][dC]Y[dAph(Gln)]KTC[dY]-NH2 (disulfide 2-7) [Compound 21: H-Cpa-cyclo[DCys-Tyr-D-4-(Gln)Aph-Lys-Thr-Cys]-DTyr-NH2]	> 1000 nM	> 1000 nM
picolinoyl-[Phe(4-Cl)][dC]Y[dPhe(4-CONH2)]K(Me)TC[dY]-NH2 (disulfide 2-7) [Compound 53: 2-Pyridyl(CO)-Cpa-cyclo[D-Cys-Tyr-D-Phe(4-carbamoyl)-Lys(Nε-Me)-Thr-Cys]-D-Tyr-NH2]	4.28 nM	
XXYXKTCX (HELM PEPTIDE1{[N[C@@H](Cc1ccc(Cl)cc1)C(=O)[*:2]].[dC].Y.[O=C([C@@H](Cc1ccc(N[*:3])cc1)N[*:1])[*:2]].K.T.C.[dY].[am]}|PEPTIDE2{G}$PEPTIDE1,PEPTIDE2,4:R3-1:R2|PEPTIDE1,PEPTIDE1,2:R3-7:R3$$$V2.0; SMILES C[C@@H](O)[C@@H]1NC(=O)[C@H](CCCCN)NC(=O)[C@@H](Cc2ccc(NC(=O)CN)cc2)NC(=O)[C@H](Cc2ccc(O)cc2)NC(=O)[C@H](NC(=O)[C@@H](N)Cc2ccc(Cl)cc2)CSSC[C@@H](C(=O)N[C@H](Cc2ccc(O)cc2)C(N)=O)NC1=O) [Compound 8: H-Cpa-cyclo[DCys-Tyr-D-4-(Gly)Aph-Lys-Thr-Cys]-DTyr-NH2]	84 nM	> 1000 nM

Continued, values first:

IC50 (PathHunter β-Arrestin, antagonist mode) [1]	IC50 (PathHunter β-Arrestin, antagonist mode) [2]	Binder
104 nM	> 1000 nM	XXYXKTCX (HELM PEPTIDE1{[N[C@@H](Cc1ccc(Cl)cc1)C(=O)[*:2]].[dC].Y.[O=C([C@@H](Cc1ccc(N[*:3])cc1)N[*:1])[*:2]].K.T.C.[dY].[am]}|PEPTIDE2{[ac].G}$PEPTIDE1,PEPTIDE2,4:R3-2:R2|PEPTIDE1,PEPTIDE1,2:R3-7:R3$$$V2.0; SMILES CC(=O)NCC(=O)Nc1ccc(C[C@H]2NC(=O)[C@H](Cc3ccc(O)cc3)NC(=O)[C@H](NC(=O)[C@@H](N)Cc3ccc(Cl)cc3)CSSC[C@@H](C(=O)N[C@H](Cc3ccc(O)cc3)C(N)=O)NC(=O)[C@H]([C@@H](C)O)NC(=O)[C@H](CCCCN)NC2=O)cc1) [Compound 9: H-Cpa-cyclo[DCys-Tyr-D-4-(Gly-Ac)Aph-Lys-Thr-Cys]-DTyr-NH2]
> 1000 nM	> 1000 nM	H-[Phe(4-Cl)][dC]Y[dAph(Lys)]KTC[dY]-NH2 (disulfide 2-7) [Compound 17: H-Cpa-cyclo[DCys-Tyr-D-4-(Lys)Aph-Lys-Thr-Cys]-DTyr-NH2]
458 nM	> 1000 nM	H-[Phe(4-Cl)][dC]Y[dAph(Val)]KTC[dY]-NH2 (disulfide 2-7) [Compound 23: H-Cpa-cyclo[DCys-Tyr-D-4-(Val)Aph-Lys-Thr-Cys]-DTyr-NH2]
334 nM	> 1000 nM	H-[Phe(4-Cl)][dC]Y[dTyr(O-2-(4-morpholinyl)ethyl)]KTC[dY]-NH2 (disulfide 2-7) [Compound 13: H-Cpa-cyclo[DCys-Tyr-D-(2-(4-morpholinyl)ethyl)Tyr-Lys-Thr-Cys]-DTyr-NH2]
10.7 nM		H-[Phe(4-Cl)][dC]Y[dPhe(4-CONH2)]KTC[dTyr(Me)]-NH2 (disulfide 2-7; SMILES COc1ccc(C[C@@H](NC(=O)[C@@H]2CSSC[C@@H](NC(=O)[C@@H](N)Cc3ccc(Cl)cc3)C(=O)N[C@@H](Cc3ccc(O)cc3)C(=O)N[C@H](Cc3ccc(C(N)=O)cc3)C(=O)N[C@@H](CCCCN)C(=O)N[C@@H]([C@@H](C)O)C(=O)N2)C(N)=O)cc1) [Compound 44: H-Cpa-cyclo[DCys-Tyr-D-(4-carbamoyl)Phe-Lys-Thr-Cys]-4-OMe-D-Phe-NH2]
> 1000 nM	> 1000 nM	H-[Phe(4-Cl)][dC]Y[dAph(Pro)]KTC[dY]-NH2 (disulfide 2-7) [Compound 10: H-Cpa-cyclo[DCys-Tyr-D-4-(Pro)Aph-Lys-Thr-Cys]-DTyr-NH2]
213 nM	> 1000 nM	H-[Phe(4-Cl)][dC]Y[dPhe(4-aminomethyl)]KTC[dY]-NH2 (disulfide 2-7) [Compound 5: H-Cpa-cyclo[DCys-Tyr-D-(4-aminomethyl)Phe-Lys-Thr-Cys]-DTyr-NH2]
234 nM	> 1000 nM	H-[Phe(4-Cl)][dC]Y[dAph(Ser)]KTC[dY]-NH2 (disulfide 2-7) [Compound 16: H-Cpa-cyclo[DCys-Tyr-D-4-(Ser)Aph-Lys-Thr-Cys]-DTyr-NH2]
181 nM	> 1000 nM	H-[Phe(4-Cl)][dC]Y[dHoCit]KTC[dY]-NH2 (disulfide 2-7) [Compound 2: H-Cpa-cyclo[DCys-Tyr-DHoCit-Lys-Thr-Cys]-DTyr-NH2]
166 nM	> 1000 nM	H-[Phe(4-Cl)][dC]Y[dPhe(4-acetamidomethyl)]KTC[dY]-NH2 (disulfide 2-7) [Compound 6: H-Cpa-cyclo[DCys-Tyr-D-(4-acetamidomethyl)Phe-Lys-Thr-Cys]-DTyr-NH2]
2.86 nM		H-[βAla][Phe(4-Cl)][dC]Y[dPhe(4-CONH2)]K(Me)TC[dY]-NH2 (disulfide 3-8; SMILES CNCCCC[C@@H]1NC(=O)[C@@H](Cc2ccc(C(N)=O)cc2)NC(=O)[C@H](Cc2ccc(O)cc2)NC(=O)[C@H](NC(=O)[C@H](Cc2ccc(Cl)cc2)NC(=O)CCN)CSSC[C@@H](C(=O)N[C@H](Cc2ccc(O)cc2)C(N)=O)NC(=O)[C@H]([C@@H](C)O)NC1=O) [Compound 49: H-βAla-Cpa-cyclo[DCys-Tyr-DPhe(4-CONH2)-Lys(Me)-Thr-Cys]-DTyr-NH2]

Reference: patent US20190040102A1 (CDRD VENTURES, published 2019)
